The target in assay [1] is murine SR-BI (mSR-BI), class B type I scavenger receptor (murine) (UniProt Q61009). The assay is described as follows: self-competition: unlabeled HDL (500 µg protein/ml) against [125I,3H]hHDL3 (10 µg protein/ml) on Y1-BS1 cells.
Assay [2] shares this target. Kind of assay: cell association of 125I-HDL with ldlA[mSR-BI] cells at 37 C.
Assay [3] shares this target. The assay is described as follows: time course of cell association of 125I-HDL with ldlA[mSR-BI] cells at 37 C.

UniProt Q61009, sequence (Q61009 whole entry): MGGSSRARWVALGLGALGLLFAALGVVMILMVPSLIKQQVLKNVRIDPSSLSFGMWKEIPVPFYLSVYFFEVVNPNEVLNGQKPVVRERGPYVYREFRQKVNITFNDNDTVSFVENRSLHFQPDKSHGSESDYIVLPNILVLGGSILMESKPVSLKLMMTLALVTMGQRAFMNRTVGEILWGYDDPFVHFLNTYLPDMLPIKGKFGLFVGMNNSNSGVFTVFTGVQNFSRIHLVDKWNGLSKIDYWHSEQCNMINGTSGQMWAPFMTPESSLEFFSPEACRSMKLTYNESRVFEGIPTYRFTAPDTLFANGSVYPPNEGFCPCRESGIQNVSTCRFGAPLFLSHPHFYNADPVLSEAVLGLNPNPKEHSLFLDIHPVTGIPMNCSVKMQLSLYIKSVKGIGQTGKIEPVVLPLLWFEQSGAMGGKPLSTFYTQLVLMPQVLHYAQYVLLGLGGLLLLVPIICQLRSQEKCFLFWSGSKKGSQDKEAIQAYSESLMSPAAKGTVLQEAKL

Regarding “human HDL3 (hHDL3, 1.125-1.210 g/ml) labeled with [125I]dilactitol tyramine and [3H]cholesteryl oleolyl ether”, the reduction of cell association of HDL in assay [1] worked out at 85%.

“human HDL (high density lipoprotein prepared from human plasma by zonal centrifugation) (from UniProt P02647 25-267; P02652 24-100)” registered a fraction of the total label bound to the transfected cells in 5 hours in assay [2] of less than 0.5%. This substance also gave a cell-associated 125I-HDL at steady state (ng protein/mg cell protein) in assay [3] of 200.

Source of the values: patent US20040077526A1.
